In the supplement of paper PMC10567573:

B1: PTPRD (parent)
chain: ITWFKDFLPVDTSNNNGRIKQLRS

Variants of: B1
Test: protein stability index of a GFP-peptide fusion (GPS, HEK-293T) (PSI 1-6); higher = more stable
Settings: c terminus: a fixed tail appended
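Further: lentivirally expressed fusions sorted by FACS into six bins by GFP to DsRed ratio, PSI derived from sequencing read proportions per bin multiplied by bin number.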

Protein stability index of substitutions, site by site:
R18: K 1.68 | I 1.74 | L 1.45 | F 2.04 | D 1.83 | M 1.63 | C 2.83 | G 2.73 | H 2.77 | Q 2.24 | N 1.97 | P 2.08 | V 2.33 | E 1.87 | S 1.95 | T 1.93 | A 1.8
V10: D 2.39 | E 2.23 | F 2.65 | W 2.62 | G 2.28 | Y 1.89 | N 2.34 | T 1.76 | S 2.15 | P 2.26 | Q 2.17 | H 2.07 | R 1.82 | K 2.07 | M 1.86 | I 2.49 | L 1.95
D11: I 2.44 | F 1.9 | P 2.06 | A 1.9 | Q 1.84 | R 1.35 | Y 1.67 | M 2.16 | G 1.99 | V 1.86 | C 2.23 | S 2.06 | H 1.73 | N 2.01 | T 1.61 | W 2.33 | E 1.99 | K 1.71 | L 1.62
N15: V 1.74 | P 1.82 | Y 1.87 | W 2.17 | C 2.26 | S 1.67 | D 1.74 | M 1.8 | R 1.71 | L 2.37 | E 1.69 | H 1.48 | A 1.61 | I 1.58 | T 3.44 | G 1.72 | F 1.6 | Q 1.76 | K 2.54
G17: R 1.5 | M 1.34 | Q 2.15 | N 1.86 | S 2.33 | A 1.58 | W 2.63 | D 2.09 | F 2.33 | I 1.53 | E 2.62 | L 1.73 | T 2.25 | C 1.88 | P 1.73 | H 1.37 | K 2.86 | Y 1.78 | V 1.31
N14: Y 1.51 | L 1.96 | G 1.92 | R 1.98 | T 1.76 | P 2.37 | A 2.03 | H 1.37 | V 1.76 | I 1.85 | D 1.66 | W 2.16 | E 2.05 | M 1.79 | C 1.52 | F 1.5 | K 2.04 | Q 2.02 | S 2.94
T12: L 1.94 | V 2.42 | K 2.01 | I 2.01 | C 1.55 | S 1.94 | P 2.03 | M 2.32 | G 1.83 | Q 2.25 | H 1.48 | D 1.99 | Y 1.55 | F 1.65 | A 1.98 | E 2.06 | N 1.51 | W 1.84 | R 1.9
N16: Q 2.26 | V 2.62 | G 1.7 | A 1.78 | Y 1.71 | R 1.65 | C 2.09 | M 1.43 | S 1.98 | D 1.88 | E 2.02 | H 1.58 | F 1.82 | K 1.98 | T 2.38 | P 2.32 | W 2.17 | L 1.73 | I 2.32
S13: K 1.77 | Y 2.05 | Q 1.85 | M 2.17 | A 1.62 | V 2.38 | W 1.65 | N 1.68 | C 1.54 | D 2.22 | E 1.7 | L 1.88 | P 2.34 | F 1.52 | R 1.88 | G 1.77 | T 1.95 | I 1.41 | H 2.05
